Source: patent US20130084301A1 (published 2013)

B1: HC-84.21 (antibody, V domains shown)
VH: QVQLVQSGAEVKKPGSSVKVSCKASGTSFNRYTFAWVRQAPGQGLEWVGTIIPIVGLTNYAEKFQGRVSITADKSTSTTYMELSSLRSEDTAVYFCARKVEFWLGEIAPNKFDVFDLWGQGTMVTVSS
VL: EIVLTQSPDSLAVSLGERATIHCKSSQSIFFSSNSKDYLAWYQQKPGQPPKLLIYWASTRDSGVPDRFSGSGSGTDFTLTITGLQADDAAVYYCQQFDTPQITFGGGTKLEIKR
notes: also called CBH-84.21
B2: HC-84.20 (antibody, V domains shown)
VH: QVQLVQSGSEVKKPGSSVKVSCKASGGTFNIYTVNWVRQAPGQGLEWMGRIIPMLGSADYAQRFQGRVTISADKSTSTAYMELRNLKSEDTAVYYCARSLPREMFFRDDAFDIWGQGTMVTVSS
VL: ETTLTQSPGTLSLSPGERATLSCRASQSVSSNLAWYQQKPGQAPRLLIYGASTRATGIPDRFSGSGSGTDFTLTISRLEPDDFVVYYCQQYGSSPVTFGQGTRLEIKR
B3: HC-84.24 (antibody, V domains shown)
VH: QVQLVQSGAEVKKPGSSVKVSCKASGGTFSLNSLSWVRQAPGQGLEWMGTIIPIVGIANYAQKFQGRVTITADKSTGTAYMDLSSLSDDTAVYFCARELYSGTGFFRLEALDYWGQGTLVTVSS
VL: DIQMTQSPATLSLSPGERATLSCRASQSVSSYLAWYQQKPGQAPRLLIYDASNRATGIPARFIAGGSGTDFTLTISSLEPEDFAVYYCQQYGSPQTFGQGTKLEIKR
B4: HC-84.22 (antibody, V domains shown)
VH: EVQLVQSGAEVKKPGSSVKVSCKASGDTFSSYSIHWVRQAPGQGLEWMGRIIPIVGLVDYAQMFQGRVTISADRSTNTVYMDLSNLRSEDTAIYYCARSLGCPNGVCHGPRAADYFDYWGQGTLVTVSS
VL: EMTLTQSPSSLSASVGDRVTITCRASQSISSWLAWYQQKPGKAPKLLIYDASNLETGVPSRFSGSGSGTDFTFTISSLQPEDIATYYCQQYDNLPRTFGQGTKVDIKR
B5: HC-84.23 (antibody, V domains shown)
VH: QVQLVESGAEVKKPGSSVKVSCKASGDTFSSYSIHWVRQAPGQGLEWMGRIIPIVGLVDYAQMFQGRVTISADRSTNTVYMDLSNLRSEDTAYYCARASLGCPNGVCHGPRAADYFDYWGQGTLVTVSS
VL: EIVLTQSPGTVSLFPGDRVTLSCRASQRVPSSSLAWYQQKPGQAPRLLLYGASSRATGIPDRFSGRGSGTDFALSISRLEPEDFAVYYCQQYGSSLITFGQGTRLEIKR
notes: also called HC-23

Assays:
[1] = biological target: T1, HCV 1a E2 with alanine substitution at 429 (hepatitis C virus genotype 1a, H77c, UniProt P27958 384-746); experiment: alanine-substitution ELISA; row marked *: tested at 0.2 ug/ml
[2] = biological target: T2, HCV 1a E2 with alanine substitution at 441 (hepatitis C virus genotype 1a, H77c, UniProt P27958 384-746); experiment: as above
[3] = biological target: T3, HCV 1a E2 with alanine substitution at 442 (hepatitis C virus genotype 1a, H77c, UniProt P27958 384-746); experiment: as above
[4] = biological target: T4, HCV 1a E2 with alanine substitution at 443 (hepatitis C virus genotype 1a, H77c, UniProt P27958 384-746); experiment: as above
[5] = biological target: T2, HCV 1a E2 with alanine substitution at …; experiment: alanine-substitution ELISA, antibody 2 ug/ml
[6] = biological target: T3, HCV 1a E2 with alanine substitution at …; experiment: alanine-substitution ELISA, antibody 2 ug/ml
[7] = biological target: T4, HCV 1a E2 with alanine substitution at …; experiment: alanine-substitution ELISA, antibody 2 ug/ml
[8] = biological target: HCV 1a E2 with alanine substitution at 613 (hepatitis C virus genotype 1a, H77c, UniProt P27958 384-746); experiment: alanine-substitution ELISA, antibody 2 ug/ml
[9] = biological target: T1, HCV 1a E2 with alanine substitution at …; experiment: alanine-substitution ELISA
[10] = biological target: HCV 1a E2 with alanine substitution at 616 (hepatitis C virus genotype 1a, H77c, UniProt P27958 384-746); experiment: alanine-substitution ELISA
[11] = biological target: T1, HCV 1a E2 with alanine substitution at …; experiment: alanine-substitution ELISA, antibody 2 ug/ml
[12] = biological target: HCV 1a E2 with alanine substitution at 420 (hepatitis C virus genotype 1a, H77c, UniProt P27958 384-746); experiment: alanine-substitution ELISA, antibody 2 ug/ml
[13] = biological target: HCV 1a E2 with alanine substitution at 428 (hepatitis C virus genotype 1a, H77c, UniProt P27958 384-746); experiment: alanine-substitution ELISA, antibody 2 ug/ml
[14] = biological target: HCV 1a E2 with alanine substitution at 437 (hepatitis C virus genotype 1a, H77c, UniProt P27958 384-746); experiment: alanine-substitution ELISA, antibody 2 ug/ml
[15] = biological target: T3, HCV 1a E2 with alanine substitution at …; experiment: alanine-substitution ELISA
[16] = biological target: T4, HCV 1a E2 with alanine substitution at …; experiment: alanine-substitution ELISA

Binder	% of binding to wt E2 [5] [%]	% of binding to wt E2 [6] [%]	% of binding to wt E2 [7] [%]	binding result [9]	binding result [10]	% of binding to wt E2 [12] [%]	% of binding to wt E2 [13] [%]	% of binding to wt E2 [14] [%]	also measured
B1	–	–	–	–	–	–	–	–	% of binding to wt E2 [1]: 15%; % of binding to wt E2 [2]: 28%; % of binding to wt E2 [3]: 20%; % of binding to wt E2 [4]: 35%
B2	6	26	26	no binding (tested: 2 ug/ml)	no binding (tested: 2 ug/ml)	–	–	–	% of binding to wt E2 [8]: 20%
B3	–	14	1	–	–	–	–	–	% of binding to wt E2 [11]: 1%
B4	2	–	–	no binding (tested: 2 ug/ml)	no binding (tested: 2 ug/ml)	18	19	8	binding result [15]: no binding (tested: 2 ug/ml); binding result [16]: no binding (tested: 2 ug/ml)
B5	2	–	–	–	–	20	20	15	–
